Laboratory results as given in patent US20200102388A1 (NEW YORK UNIVERSITY, published 2020).
Where a chain is given by its changes, count along the chain named. Like-named read-outs stand apart in the source and are kept apart here. Values belong to the binder of their own block, whether it stands above or below them.

Legend:
[1] = target: T1, γδ1 TCR containing the delta1C chain (human, biotinylated in vitro using recombinant BirA (AviTag)); test: SPR (Pioneer, OneStep): biotinylated TCR immobilised on a neutravidin-loaded Avicap chip, IgG flowed; apparent KD
T1 construct: also called biotinylated TCR sample; gamma/delta1 TCR; not shown: Fc portion of mouse IgG; AviTag; His6 tag; TCR gamma chain fused to mouse IgG Fc

[2] = target: T1, γδ1 TCR containing the delta1C chain; test: as above; remark: listed apart in the source
Procedure: (§1) The affinity of the antibodies was assessed using surface plasmon resonance (SPR). A biotinylated TCR sample was immobilized on an Avicap chip (Pall ForteBio) that had been preloaded with neutravidin (ThermoFisher). IgG samples were flowed using the OneStep method on a Pioneer SPR instrument (Pall ForteBio).

[3] = target: T2, heterodimer containing Delta1C and gamma 8, Fc-fusion protein (human); test: ELISA on gamma/delta TCR-Fc heterodimers immobilised on a microtiter plate, probed with the clone named over the panel (control panel: No Phage)
T2 construct: the assay paragraph says only gamma 8; also called Delta1C/Gamma8; not shown: Fc portion of mouse IgG; AviTag; His6 tag

[4] = target: T3, heterodimer containing Delta1C and gamma 3, Fc-fusion protein (human); test: as above
T3 construct: the assay paragraph says only gamma 3; also called Delta1C/Gamma3; not shown: Fc portion of mouse IgG; AviTag; His6 tag

[5] = target: T2, heterodimer containing Delta1C and …; test: as above; remark: listed apart in the source
[6] = target: T3, heterodimer containing Delta1C and …; test: as above; remark: listed apart in the source
[7] = target: T1, γδ1 TCR containing the delta1C chain; test: SPR (Pioneer, OneStep): biotinylated TCR immobilised on a neutravidin-loaded Avicap chip, IgG flowed; apparent KD; remark: listed apart in the source
Procedure: as §1

[8] = target: T2, heterodimer containing Delta1C and …; test: ELISA on gamma/delta TCR-Fc heterodimers immobilised on a microtiter plate, probed with the clone named over the panel (control panel: No Phage); remark: listed apart in the source
[9] = target: T3, heterodimer containing Delta1C and …; test: as above; remark: listed apart in the source
[10] = target: T1, γδ1 TCR containing the delta1C chain; test: SPR (Pioneer, OneStep): biotinylated TCR immobilised on a neutravidin-loaded Avicap chip, IgG flowed; apparent KD; remark: listed apart in the source
Procedure: as §1

[11] = target: T2, heterodimer containing Delta1C and …; test: ELISA on gamma/delta TCR-Fc heterodimers immobilised on a microtiter plate, probed with the clone named over the panel (control panel: No Phage); remark: listed apart in the source
[12] = target: T3, heterodimer containing Delta1C and …; test: as above; remark: listed apart in the source
[13] = target: T1, γδ1 TCR containing the delta1C chain; test: SPR (Pioneer, OneStep): biotinylated TCR immobilised on a neutravidin-loaded Avicap chip, IgG flowed; apparent KD; remark: listed apart in the source
Procedure: as §1

[14] = target: T2, heterodimer containing Delta1C and …; test: ELISA on gamma/delta TCR-Fc heterodimers immobilised on a microtiter plate, probed with the clone named over the panel (control panel: No Phage); remark: listed apart in the source
[15] = target: T3, heterodimer containing Delta1C and …; test: as above; remark: listed apart in the source
[16] = target: T1, γδ1 TCR containing the delta1C chain; test: SPR (Pioneer, OneStep): biotinylated TCR immobilised on a neutravidin-loaded Avicap chip, IgG flowed; apparent KD; remark: listed apart in the source
Procedure: as §1

[17] = target: T2, heterodimer containing Delta1C and …; test: ELISA on gamma/delta TCR-Fc heterodimers immobilised on a microtiter plate, probed with the clone named over the panel (control panel: No Phage); remark: listed apart in the source
[18] = target: T3, heterodimer containing Delta1C and …; test: as above; remark: listed apart in the source

T1 sequence (main, as listed by the source): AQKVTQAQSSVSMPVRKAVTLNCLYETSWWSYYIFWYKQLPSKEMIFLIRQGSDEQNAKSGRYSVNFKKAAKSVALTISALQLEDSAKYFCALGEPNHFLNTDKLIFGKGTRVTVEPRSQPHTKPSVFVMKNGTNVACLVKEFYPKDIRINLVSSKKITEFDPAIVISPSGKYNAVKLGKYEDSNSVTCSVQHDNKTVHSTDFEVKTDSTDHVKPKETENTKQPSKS
T2 sequence (V domain, as listed by the source, chain 1 of 2): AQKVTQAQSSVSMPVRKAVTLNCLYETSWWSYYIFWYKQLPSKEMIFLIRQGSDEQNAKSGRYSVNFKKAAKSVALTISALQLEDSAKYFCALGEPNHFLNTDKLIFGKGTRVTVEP
T2 sequence (V domain, as listed by the source, chain 2 of 2): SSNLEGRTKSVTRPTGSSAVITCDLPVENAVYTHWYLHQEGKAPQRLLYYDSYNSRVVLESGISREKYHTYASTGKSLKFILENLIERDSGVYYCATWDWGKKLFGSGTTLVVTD
T3 sequence (V domain, as listed by the source, chain 1 of 2): as the sequence (V domain, as listed by the source, chain 1 of 2) above
T3 sequence (V domain, as listed by the source, chain 2 of 2): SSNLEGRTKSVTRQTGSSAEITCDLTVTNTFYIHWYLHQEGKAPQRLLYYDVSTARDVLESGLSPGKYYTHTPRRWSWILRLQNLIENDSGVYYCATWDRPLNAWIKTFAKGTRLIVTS

B2: Delta 1-13 (antibody, V domains shown)
VH: EVQLVESGGGLVQPGGSLRLSCAASGFTFSSSSIHWVRQAPGKGLEWVASISSSSGSTSYADSVKGRFTISADTSKNTAYLQMNSLRAEDTAVYYCARTTSYIDEYFGFGWYAMDYWGQGTLVTVSS
VL: DIQMTQSPSSLSASVGDRVTITCRASQSVSSAVAWYQQKPGKAPKLLIYSASSLYSGVPSRFSGSRSGTDFTLTISSLQPEDFATYYCQQSSSSLITFGQGTKVEIKR
Kd [2]: 53 nM

B4: Delta 1-17 (antibody, V domains shown)
VH: EVQLVESGGGLVQPGGSLRLSCAASGFTVSSSSIHWVRQAPGKGLEWVASIYSSSGYTYYADSVKGRFTISADTSKNTAYLQMNSLRAEDTAVYYCARDPGMYYWYYSGSAYEGYGLDYWGQGTLVTVSS
VL: B2 VL with S92G, S93D, S94D
notes: also called Delta1-17 IgG
binding result [5]: binds
binding result [6]: binds
Kd [7]: 7 nM

B5: Delta 1-10 (antibody, V domains shown)
VH: EVQLVESGGGLVQPGGSLRLSCAASGFTFSSSSIHWVRQAPGKGLEWVASISSSSGSTSYADSVKGRFTISADTSKNTAYLQMNSLRAEDTAVYYCARSMVWYWGLNGYEEYAGGMDYWGQGTLVTVSS
VL: B2 VL
binding result [8]: no binding
binding result [9]: no binding
Kd [10]: 24 nM

B6: Delta 1-8 (antibody, V domains shown)
VH: EVQLVESGGGLVQPGGSLRLSCAASGFTVSSSSIHWVRQAPGKGLEWVASIYSSSGYTYYADSVKGRFTISADTSKNTAYLQMNSLRAEDTAVYYCARPYYWYPYYYWSGGWEYAAFDYWGQGTLVTVSS
VL: B2 VL with S91Y, S92G, S93E, S94Y, L95P
binding result [11]: binds
binding result [12]: binds

B7: Delta 1-1 (antibody, V domains shown)
VH: EVQLVESGGGLVQPGGSLRLSCAASGFTVSSSSIHWVRQAPGKGLEWVASISSYYGYTSYADSVKGRFTISADTSKNTAYLQMNSLRAEDTAVYYCAREEWMSYWYWPRYYYYGMDYWGQGTLVTVSS
VL: DIQMTQSPSSLSASVGDRVTITCRASQSVSSAVAWYQQKPGKAPKLLIYSASSLYSGVPSRFSGSRSGTDFTLTISSLQPEDFATYYCQQAALMSPITFGQGTKVEIKR
notes: Tested by SPR as human IgG made in ExpiCHO cells
Kd [13]: 10 nM
binding result [14]: no binding
binding result [15]: no binding

The remaining lines, values ahead:

Kd [1]: 50 nM
B1: Delta 1-3 (antibody, V domains shown)
VH: EVQLVESGGGLVQPGGSLRLSCAASGFTLSSSSIHWVRQAPGKGLEWVASIYSSSGYTSYADSVKGRFTISADTSKNTAYLQMNSLRAEDTAVYYCARGLWSVWYYQFYSSMQGMDYWGQGTLVTVSS
VL: B2 VL with S91G, S92Y, S93E, S94Y, L95P, I96L
notes: Tested by SPR as human IgG

binding result [3]: no binding
binding result [4]: binds
B3: Delta 1-15 (antibody, V domains shown)
VH: EVQLVESGGGLVQPGGSLRLSCAASGFTFSSSSIHWVRQAPGKGLEWVASISSSSGSTSYADSVKGRFTISADTSKNTAYLQMNSLRAEDTAVYYCARYSWIYDSWWSGWAMDYWGQGTLVTVSS
VL: B2 VL

Kd [16]: 11 nM
binding result [17]: no binding
binding result [18]: no binding
B8: Delta 1-6 (antibody, V domains shown)
VH: EVQLVESGGGLVQPGGSLRLSCAASGFTVYSSSIHWVRQAPGKGLEWVASISPYSGSTSYADSVKGRFTISADTSKNTAYLQMNSLRAEDTAVYYCARMWYLSGWWTGDALDYWGQGTLVTVSS
VL: B7 VL with A91G, A92Y, L93Y, M94S, S95A, P96L
